# Data from patent US20220378931A1 (Eli Lilly, published 2022).
# B1: INS Analog 2 (other)
# chain: FVDQHLCGSHLVEALYLVCGERGFFYTPKTGGGGGGGIVEQCCTSICSLYQLENYCGPGPAPGPAPGPAPGPAPGPAPGPAPGPAPGPAEVQLLESGGGLVQPGGSLRLSCAASGRTVSSTAVAWFRQAPGKEREFVAGIGGSVDITYYADSVKGRFTISRDNSKNTLYLQMNSLRPEDTAVYYCAVRPGRPLITSRDANLYDYWGQGTLVTVSS
# notes: single-chain insulin B-L2-A-L1-VHH fusion; also called Ex. 2
# B2: INS Analog 3 (other)
# chain: FVNQHLCGAHLVEALYLVCGERGFFYTPKTGGGGGGGIVEQCCTSICSLYQLENYCGPGPAPGPAPGPAPGPAPGPAPGPAPGPAPGPAEVQLLESGGGLVQPGGSLRLSCAASGRTVSSTAVAWFRQAPGKEREFVAGIGGSVDITYYADSVKGRFTISRDNSKNTLYLQMNSLRPEDTAVYYCAVRPGRPLITSRDANLYDYWGQGTLVTVSS
# notes: single-chain insulin B-L2-A-L1-VHH fusion; also called Ex. 3
# B3: INS Analog 4 (other)
# chain: FVNQHLCGSHLVEALELVCGERGFFYTPKTGGGGGGGIVEQCCTSICSLYQLENYCGPGPAPGPAPGPAPGPAPGPAPGPAPGPAPGPAEVQLLESGGGLVQPGGSLRLSCAASGRTVSSTAVAWFRQAPGKEREFVAGIGGSVDITYYADSVKGRFTISRDNSKNTLYLQMNSLRPEDTAVYYCAVRPGRPLITSRDANLYDYWGQGTLVTVSS
# notes: single-chain insulin B-L2-A-L1-VHH fusion; also called Ex. 4
# B4: INS Analog 5 (other)
# chain: FVNQHLCGSHLVEALHLVCGERGFFYTPKTGGGGGGGIVEQCCTSICSLYQLENYCGPGPAPGPAPGPAPGPAPGPAPGPAPGPAPGPAEVQLLESGGGLVQPGGSLRLSCAASGRTVSSTAVAWFRQAPGKEREFVAGIGGSVDITYYADSVKGRFTISRDNSKNTLYLQMNSLRPEDTAVYYCAVRPGRPLITSRDANLYDYWGQGTLVTVSS
# notes: single-chain insulin B-L2-A-L1-VHH fusion; also called Ex. 5
# B5: INS Analog 6 (other)
# chain: FVNQHLCGSHLVEALYLVCGERGFHYTPKTGGGGGGGIVEQCCTSICSLYQLENYCGPGPAPGPAPGPAPGPAPGPAPGPAPGPAPGPAEVQLLESGGGLVQPGGSLRLSCAASGRTVSSTAVAWFRQAPGKEREFVAGIGGSVDITYYADSVKGRFTISRDNSKNTLYLQMNSLRPEDTAVYYCAVRPGRPLITSRDANLYDYWGQGTLVTVSS
# notes: single-chain insulin B-L2-A-L1-VHH fusion; also called Ex. 6
# B6: INS Analog 17 (other)
# chain: FVSQHLCGSHLVEALRLVCGERGFFYTPKTGGGGGGGIVEQCCHSICSLYQLENYCGPGPAPGPAPGPAPGPAPGPAPGPAPGPAPGPAEVQLLESGGGLVQPGGSLRLSCAASGRYIDETAVAWFRQAPGKEREFVAGIGGGVDITYYADSVKGRFTISRDNSKNTLYLQMNSLRPEDTAVYYCAARPGRPLITSKVADLYPYWGQGTLVTVSSPP
# notes: single-chain insulin B-L2-A-L1-VHH fusion; also called Ex. 17
# B7: INS Analog 7 (other)
# chain: FVSQHLCGSHLVEALYLVCGERGFFYTPKTGGGGGGGIVEQCCTSICSLYQLENYCGPGPAPGPAPGPAPGPAPGPAPGPAPGPAPGPAEVQLLESGGGLVQPGGSLRLSCAASGRYIDETAVAWFRQAPGKEREFVAGIGGGVDITYYADSVKGRFTISRDNSKNTLYLQMNSLRPEDTAVYYCAARPGRPLITSKVADLYPYWGQGTLVTVSSPP
# notes: single-chain insulin B-L2-A-L1-VHH fusion; also called Ex. 7
# B8: INS Analog 8 (other)
# chain: FVSQHLCGSHLVEALYLVCGERGFHYTPKTGGGGGGGIVEQCCTSICSLYQLENYCGPGPAPGPAPGPAPGPAPGPAPGPAPGPAPGPAEVQLLESGGGLVQPGGSLRLSCAASGRYIDETAVAWFRQAPGKEREFVAGIGGGVDITYYADSVKGRFTISRDNSKNTLYLQMNSLRPEDTAVYYCAARPGRPLITSKVADLYPYWGQGTLVTVSSPP
# notes: single-chain insulin B-L2-A-L1-VHH fusion; also called Ex. 8
# B9: INS Analog 9 (other)
# chain: FVSQHLCGSHLVEALYLVCGERGFHYTPKTGGGGGGGIVEQCCHSICSLYQLENYCGPGPAPGPAPGPAPGPAPGPAPGPAPGPAPGPAEVQLLESGGGLVQPGGSLRLSCAASGRYIDETAVAWFRQAPGKEREFVAGIGGGVDITYYADSVKGRFTISRDNSKNTLYLQMNSLRPEDTAVYYCAARPGRPLITSKVADLYPYWGQGTLVTVSSPP
# notes: single-chain insulin B-L2-A-L1-VHH fusion; also called Ex. 9
# B10: INS Analog 10 (other)
# chain: FVSQHLCGSHLVEALHLVCGERGFFYTPKTGGGGGGGIVEQCCTSICSLYQLENYCGPGPAPGPAPGPAPGPAPGPAPGPAPGPAPGPAEVQLLESGGGLVQPGGSLRLSCAASGRYIDETAVAWFRQAPGKEREFVAGIGGGVDITYYADSVKGRFTISRDNSKNTLYLQMNSLRPEDTAVYYCAARPGRPLITSKVADLYPYWGQGTLVTVSSPP
# notes: single-chain insulin B-L2-A-L1-VHH fusion; also called Ex. 10
# B11: INS Analog 11 (other)
# chain: FVSQHLCGSHLVEALHLVCGERGFFYTPKTGGGGGGGIVEQCCHSICSLEQLENYCGPGPAPGPAPGPAPGPAPGPAPGPAPGPAPGPAEVQLLESGGGLVQPGGSLRLSCAASGRYIDETAVAWFRQAPGKEREFVAGIGGGVDITYYADSVKGRFTISRDNSKNTLYLQMNSLRPEDTAVYYCAARPGRPLITSKVADLYPYWGQGTLVTVSSPP
# notes: single-chain insulin B-L2-A-L1-VHH fusion; also called Ex. 11
# B12: INS Analog 12 (other)
# chain: FVSQHLCGSHLVEALHLVCGERGFHYTPKTGGGGGGGIVEQCCHSICSLYQLENYCGPGPAPGPAPGPAPGPAPGPAPGPAPGPAPGPAEVQLLESGGGLVQPGGSLRLSCAASGRYIDETAVAWFRQAPGKEREFVAGIGGGVDITYYADSVKGRFTISRDNSKNTLYLQMNSLRPEDTAVYYCAARPGRPLITSKVADLYPYWGQGTLVTVSSPP
# notes: single-chain insulin B-L2-A-L1-VHH fusion; also called Ex. 12
# B13: INS Analog 15 (other)
# chain: FVSQHLCGSHLVEALFLVCGERGFFYTPKTGGGGGGGIVEQCCTSICSLYQLENYCGPGPAPGPAPGPAPGPAPGPAPGPAPGPAPGPAEVQLLESGGGLVQPGGSLRLSCAASGRYIDETAVAWFRQAPGKEREFVAGIGGGVDITYYADSVKGRFTISRDNSKNTLYLQMNSLRPEDTAVYYCAARPGRPLITSKVADLYPYWGQGTLVTVSSPP
# notes: single-chain insulin B-L2-A-L1-VHH fusion; also called Ex. 15
# B14: INS Analog 16 (other)
# chain: FVSQHLCGSHLVEALWLVCGERGFFYTPKTGGGGGGGIVEQCCTSICSLYQLENYCGPGPAPGPAPGPAPGPAPGPAPGPAPGPAPGPAEVQLLESGGGLVQPGGSLRLSCAASGRYIDETAVAWFRQAPGKEREFVAGIGGGVDITYYADSVKGRFTISRDNSKNTLYLQMNSLRPEDTAVYYCAARPGRPLITSKVADLYPYWGQGTLVTVSSPP
# notes: single-chain insulin B-L2-A-L1-VHH fusion; also called Ex. 16
# B15: INS Analog 20 (other)
# chain: FVSQHLCGSHLVEALYLVCGERGFFYTPKTGGGGGGGIVEQCCTSICSLYQLENYCGPGPQPGPQPGPQPGPQPGPQPGPQPGPQPGPQEVQLLESGGGLVQPGGSLRLSCAASGRYIDETAVAWFRQAPGKEREFVAGIGGGVDITYYADSVKGRFTISRDNSKNTLYLQMNSLRPEDTAVYYCAARPGRPLITSKVADLYPYWGQGTLVTVSSPP
# notes: single-chain insulin B-L2-A-L1-VHH fusion; also called Ex. 20
# B16: INS Analog 22 (other)
# chain: FVSQHLCGSHLVEALHLVCGERGFHYTPKTGGGGGGGIVEQCCHSICSLYQLENYCGPGPQPGPQPGPQPGPQPGPQPGPQPGPQPGPQEVQLLESGGGLVQPGGSLRLSCAASGRYIDETAVAWFRQAPGKEREFVAGIGGGVDITYYADSVKGRFTISRDNSKNTLYLQMNSLRPEDTAVYYCAARPGRPLITSKVADLYPYWGQGTLVTVSSPP
# notes: single-chain insulin B-L2-A-L1-VHH fusion; also called Ex. 22
# B17: INS Analog 19 (other)
# chain: FVSQHLCGSHLVEALYLVCGERGFFYTPKTGGGGGGGIVEQCCTSICSLYQLENYCGGGGGQGGGGQGGGGQGGGGQGGGGQEVQLLESGGGLVQPGGSLRLSCAASGRYIDETAVAWFRQAPGKEREFVAGIGGGVDITYYADSVKGRFTISRDNSKNTLYLQMNSLRPEDTAVYYCAARPGRPLITSKVADLYPYWGQGTLVTVSSPP
# notes: single-chain insulin B-L2-A-L1-VHH fusion; also called Ex. 19
# B18: INS Analog 21 (other)
# chain: FVSQHLCGSHLVEALHLVCGERGFHYTPKTGGGGGGGIVEQCCHSICSLYQLENYCGGGGGQGGGGQGGGGQGGGGQGGGGQEVQLLESGGGLVQPGGSLRLSCAASGRYIDETAVAWFRQAPGKEREFVAGIGGGVDITYYADSVKGRFTISRDNSKNTLYLQMNSLRPEDTAVYYCAARPGRPLITSKVADLYPYWGQGTLVTVSSPP
# notes: single-chain insulin B-L2-A-L1-VHH fusion; also called Ex. 21
# What was measured:
# [1] = molecular target: T1, human insulin receptor isoform A with C-terminal C9 tag (human, UniProt P06213 28-1382); test: 125I-insulin competition SPA, hIR-A membranes, 0.1% BSA
# T1 construct: membranes of stably transfected HEK293 cells; also called hIR-A; human IR-A
# Description: (§1) The assays are performed with a SPA method using polyvinyltoluene (PVT) wheat germ agglutinin-coupled SPA beads (Perkin Elmer). Assay buffer contains 50 mM Tris-HCl, pH 7.5, 150 mM NaCl and either A) 0.1% w/v fatty-acid free BSA; B) 0.1% w/v fatty-acid free human serum albumin (HSA); C) 0.1% w/v rat serum albumin (RSA); or D) 0.001% Nonidet P-40 Substitute (NP-40, Roche Diagnostics). Ten-point concentration response curves using three-fold serial dilutions of test samples or controls are prepared in Assay Buffer using a Freedom/Evo robot (Tecan).
# (§2) Percent specific inhibition (y-axis) is plotted versus the log concentration of compound (x-axis). […] Reported Ki values are shown as the geometric mean with the standard error (Delta Method Standard Error) and the number of independent replicate determinations used to calculate the geometric mean indicated by n.
# [2] = molecular target: T1, human insulin receptor isoform A with …; test: 125I-insulin competition SPA, hIR-A membranes, 0.1% HSA
# Description: as §1, §2
# [3] = molecular target: T2, human insulin receptor isoform B with C-terminal C9 tag (human, UniProt P06213 28-1382); test: 125I-insulin competition SPA, hIR-B membranes, 0.1% BSA
# T2 construct: membranes of stably transfected HEK293 cells; also called hIR-B; human IR-B
# Description: as §1, §2
# [4] = molecular target: T2, human insulin receptor isoform B with …; test: 125I-insulin competition SPA, hIR-B membranes, 0.1% HSA
# Description: as §1, §2
# [5] = molecular target: T1, human insulin receptor isoform A with …; test: 125I-insulin competition SPA, hIR-A membranes, 0.001% NP-40
# Description: as §1, §2
# [6] = molecular target: T2, human insulin receptor isoform B with …; test: 125I-insulin competition SPA, hIR-B membranes, 0.001% NP-40
# Description: as §1, §2
binder,measurement,setting,value
B1,Ki,[1],31.4 nM
same,Ki,[2],31.9 nM
same,Ki,[3],56 nM
same,Ki,[4],29.7 nM
same,Ki,[5],45.1 nM
same,Ki,[6],39.2 nM
B2,Ki,[1],45.2 nM
B3,Ki,[1],591 nM
B4,Ki,[1],57 nM
B5,Ki,[1],65.5 nM
B6,Ki,[1],81.8 nM
same,Ki,[2],31.3 nM
same,Ki,[3],110 nM
same,Ki,[4],102 nM
same,Ki,[5],31.3 nM
same,Ki,[6],44.3 nM
B7,Ki,[1],36.1 nM
same,Ki,[2],36.3 nM
same,Ki,[3],120 nM
same,Ki,[4],47.1 nM
same,Ki,[5],14.3 nM
same,Ki,[6],45.4 nM
B8,Ki,[1],139 nM
same,Ki,[5],47.3 nM
B9,Ki,[1],11.7 nM
same,Ki,[5],6.67 nM
B10,Ki,[1],146 nM
same,Ki,[5],20.1 nM
B11,Ki,[1],36 nM
same,Ki,[2],31.8 nM
same,Ki,[3],164 nM
same,Ki,[4],95.4 nM
same,Ki,[5],20.5 nM
same,Ki,[6],81.1 nM
B12,Ki,[1],37.9 nM
same,Ki,[2],42.3 nM
same,Ki,[3],113 nM
same,Ki,[4],62.1 nM
same,Ki,[5],25 nM
same,Ki,[6],42.8 nM
B13,Ki,[1],39.2 nM
same,Ki,[5],13.1 nM
B14,Ki,[1],46 nM
same,Ki,[5],43.1 nM
B15,Ki,[1],51.3 nM
same,Ki,[5],18.5 nM
B16,Ki,[1],59.7 nM
same,Ki,[5],17.1 nM
B17,Ki,[1],41.8 nM
same,Ki,[5],18.5 nM
B18,Ki,[1],28 nM
same,Ki,[5],8.3 nM
